T1: DEVD-amc (Acetyl-Asp-Glu-Val-Asp-aminomethylcoumarin)
T1 chain: DEVD

T2: membrane derived procaspase-3, P42574
T2 chain: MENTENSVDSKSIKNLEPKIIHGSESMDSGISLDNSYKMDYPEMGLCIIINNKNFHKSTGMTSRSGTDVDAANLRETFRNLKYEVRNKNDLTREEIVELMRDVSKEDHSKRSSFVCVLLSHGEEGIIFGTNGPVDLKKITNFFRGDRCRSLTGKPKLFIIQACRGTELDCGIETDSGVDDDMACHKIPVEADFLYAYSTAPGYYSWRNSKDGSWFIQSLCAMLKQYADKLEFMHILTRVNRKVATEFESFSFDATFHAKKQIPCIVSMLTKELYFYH

B1: r-caspase-3 (His)6 (protein)
chain 1: SGISLDNSYKMDYPEMGLCIIINNKNFHKSTGMTSRSGTDVDAANLRETFRNLKYEVRNKNDLTREEIVELMRDVSKEDHSKRSSFVCVLLSHGEEGIIFGTNGPVDLKKITNFFRGDRCRSLTGKPKLFIIQACRGTELDCGIETD
chain 2: SGVDDDMACHKIPVEADFLYAYSTAPGYYSWRNSKDGSWFIQSLCAMLKQYADKLEFMHILTRVNRKVATEFESFSFDATFHAKKQIPCIVSMLTKELYFYHHHHHHH
B2: affinity purified membrane derived caspase-3 from 697 cell heavy membranes (protein)
chain 1: KNLEPKIIHGSESMDSGISLDNSYKMDYPEMGLCIIINNKNFHKSTGMTSRSGTDVDAANLRETFRNLKYEVRNKNDLTREEIVELMRDVSKEDHSKRSSFVCVLLSHGEEGIIFGTNGPVDLKKITNFFRGDRCRSLTGKPKLFIIQACRGTELDCGIETD
chain 2: SGVDDDMACHKIPVDADFLYAYSTAPGYYSWRNSKDGSWFIQSLCAMLKQYADKLEFMHILTRVNRKVATEFESFSFDATFHAKKQIPCIVSMLTKELYFYH
B3: recombinant murine caspase-1 (protein)
chain: NKEDGTFPGLTGTLKFCPLEKAQKLWKENPSEIYPIMNTTTRTRLALIICNTEFQHLSPRVGAQVDLREMKLLLEDLGYTVKVKENLTALEMVKEVKEFAACPEHKTSDSTFLVFMSHGIQEGICGTTYSNEVSDILKVDTIFQMMNTLKCPSLKDKPKVIIIQACRGEKQGVVLLKDSVRDSEEDFLTDAIFEDDGIKKAHIEKDFIAFCSSTPDNVSWRHPVRGSLFIESLIKHMKEYAWSCDLEDIFRKVRFSFEQPEFRLQMPTADRVTLTKRFYLFPGH

How the values were obtained:
[1] = target: T1, DEVD-amc …
[2] = target: T2, membrane derived procaspase-3, P42574

| Protein | kcat/KM for DEVD-AMC hydrolysis [1] | KM for DEVD-AMC hydrolysis [1] | activation of DEVD-AMC hydrolysis activity in heavy membranes [2] | time course of activation of DEVD-AMC hydrolysis activity [2] |
| --- | --- | --- | --- | --- |
| B1 | the kcat/KM value for the recombinant caspase-3 (1,200,000 M^-1sec^-1) | – | – | – |
| B2 | must be >=400,000 M^-1sec^-1 | The observed KM value for the purified caspase (10 uM) | – | – |
| B3 | – | – | Treatment with recombinant caspase-1 causes a rapid, robust activation of the membrane caspase | The lack of a detectable time lag in the time course plot |

Reference: patent publication US20020197702
